Results on one molecule are retold here after PMC11139899, “Structures of co-transcriptional RNA capping enzymes on paused transcription complex” (Nature Communications, 2024).

The target in this assay is Pol II stalk (RPB4-RPB7), S. scrofa (S. scrofa). Put plainly: cryo-EM structure; PEC-RNGTT: phosphorylated Pol II, DNA-RNA scaffold with 17 nt 5′-triphosphate RNA, DSIF, RNGTT, 100 μM GMPPNP, NELF added stepwise; purified and crosslinked by GraFix; NELF seen in an Up and a Down state. Conditions: both partners purified.

B1: RNA guanylyltransferase and 5′-phosphatase (RNGTT) (enzyme)
chain: not shown
notes: human RNGTT, full-length gene; TPase domain, linker, GTase domain with OB fold; Released from the IgG resin by on-column digestion; also called capping enzyme; CE; source: Expi293F, transfected, purified (IgG resin, on-column digestion, Mono Q); not shown: 4 × ProteinA, N-terminal, cleaved
Turning to B1, the binding result was “binds”.
